Experimental data: patent publication US20190367957A1
Read-outs that look alike come from different tables or passages of the source. One block for each binder: values may come before it.

Key:
[1] = target: T1, cytochrome P-450aluC09 (P450 AluC09) from Amycolatopsis lurida NRRL 2430 (Amycolatopsis lurida NRRL 2430); assay: cell-based or functional assay
T1 sequence: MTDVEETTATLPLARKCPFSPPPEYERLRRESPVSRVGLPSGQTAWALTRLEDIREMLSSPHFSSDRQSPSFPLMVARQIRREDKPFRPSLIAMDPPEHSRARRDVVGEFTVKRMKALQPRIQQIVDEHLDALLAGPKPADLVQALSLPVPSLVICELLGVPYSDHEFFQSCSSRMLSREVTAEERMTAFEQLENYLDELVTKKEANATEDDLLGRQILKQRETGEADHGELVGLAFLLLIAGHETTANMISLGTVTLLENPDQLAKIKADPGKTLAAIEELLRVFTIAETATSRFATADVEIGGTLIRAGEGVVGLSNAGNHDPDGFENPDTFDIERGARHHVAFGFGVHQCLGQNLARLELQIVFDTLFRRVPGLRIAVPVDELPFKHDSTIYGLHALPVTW

[2] = target: T1, cytochrome P-450aluC09 (P450 AluC09) from Amycolatopsis lurida NRRL 2430 (Amycolatopsis lurida NRRL 2430); assay: cell-based or functional assay; remark: listed apart in the source

% yield of parent-derived products, HO-bosentan 568 m/z (whole cell biocatalysis) [1]: 21.2%
B1: ferredoxin CamB from Pseudomonas putida ATCC 17453 (protein)
chain: SKVVYVSHDGTRRELDVADGVSLMQAAVSNGIYDIVGDCGGSASCATCHVYVNEAFTDKVPAANEREIGMLECVTAELKPNSRLCCQIIMTPELDGIVVDVPDRQW

% yield of parent-derived products, 4'-HO-diclofenac 310 m/z (whole cell biocatalysis) [2]: 11.5% | % yield of parent-derived products, 5-HO-diclofenac 310 m/z (whole cell biocatalysis) [2]: 4.2% | % yield of parent-derived products, HO-bosentan 568 m/z (whole cell biocatalysis) [2]: 6.3%
B2: ferredoxin Fd1 from Streptomyces griseus 11796 (protein)
chain: TMRVSADRTVCVGAGLCALTAPGVFDQDDDGIVTVLTAEPAADDDRRTAREAGHLCPSGAVRVVEDTE

% yield of parent-derived products, 4'-HO-diclofenac 310 m/z (whole cell biocatalysis) [2]: 60.3% | % yield of parent-derived products, 5-HO-diclofenac 310 m/z (whole cell biocatalysis) [2]: 23.8% | % yield of parent-derived products, HO-bosentan 568 m/z (whole cell biocatalysis) [2]: 52.6% | % yield of parent-derived products, HO-bosentan 568 m/z (whole cell biocatalysis) [1]: 27.4%
B3: ferredoxin AluF03 from Amycolatopsis lurida NRRL 2430 (protein)
chain: MKIIADTGKCVGAGQCVLTDPDLFDQSEDDGTVLVLNAEPEGEEAEENARTAVHICPGQALSLA
